B1: TRIM55 (parent)
chain: YLPTRGGTTMASGGRFRCPSCRHE
B2: SOAT1 (parent)
chain: VYYIFERLCAPLFRNIKQEPFSAR

Variants of: B1
Assay: protein stability index of a GFP-peptide fusion (GPS, HEK-293T) (PSI 1-6); higher = more stable
Details: c terminus: a fixed tail appended
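Also: lentivirally expressed fusions sorted by FACS into six bins by GFP to DsRed ratio, PSI derived from sequencing read proportions per bin multiplied by bin number.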

Protein stability index of substitutions, site by site:
S12: G 2.1 | H 2.29 | I 2.18 | M 1.76 | P 2.32 | T 1.49 | V 2.42 | Y 1.28
G13: A 2.47 | D 2.37 | E 2.25 | F 2.39 | H 2.62 | I 1.33 | K 1.38 | M 1.96 | N 1.89 | P 1.44 | Q 1.51 | R 1 | T 1.88 | W 1.12
G14: A 2.23 | C 3.76 | F 2.04 | K 1.83 | L 1.29 | M 2.76 | N 2.42 | Q 1.26 | T 2.89 | Y 1.69
R15: A 2.02 | C 2.02 | D 2.78 | E 2.35 | F 2.76 | H 1.39 | K 2.05 | L 1.81 | M 1.31 | P 1.49 | Q 1.58 | S 1.65 | T 2.53 | V 1.24 | Y 1.44
F16: A 3.43 | C 3.06 | K 2.01 | M 1.74 | N 2.33 | S 3.94 | T 2.98 | V 2.71 | Y 1.57
R17: C 1.6 | H 2.56 | I 1.69 | K 1.48 | L 2.6 | N 2.24 | S 2.9 | T 2.96
C18: E 2.98 | F 2.43 | G 3.27 | H 2.94 | K 3.34 | L 3.47 | M 2.4 | N 3.15 | P 3.56 | S 3.61 | T 3.74 | V 2.71 | W 1.7 | Y 2.44
P19: D 3.35 | E 2.01 | G 2.34 | I 1.38 | M 1.61 | N 2.6 | Q 3.5 | R 2.78 | S 2.49 | T 2.18 | V 1.78 | W 3.12 | Y 2
S20: D 1.98 | E 2.01 | G 1.92 | H 2.13 | K 2.27 | L 2.09 | M 1.04 | N 1.93 | P 2.39 | Q 1.8 | R 2.04 | T 2.48 | W 1.12 | Y 1.46
C21: A 3.98 | D 3.62 | E 4.03 | H 3 | I 3.09 | L 2.86 | M 2.51 | N 3.96 | S 3.03 | T 3.14 | W 2.21 | Y 2.35
R22: A 2.59 | C 1.97 | D 2.9 | E 4.06 | F 2.38 | G 2.79 | H 2.4 | I 2.4 | K 2.94 | N 2.4 | P 3.78 | Q 2.12 | S 3.2 | V 2.25 | W 2.01 | Y 2.07
H23: C 3.34 | K 3.39 | M 1.52 | P 3.14 | S 3.03 | V 2
E24: A 1.59 | C 2.07 | D 1.93 | G 1.06 | H 1.47 | I 1.41 | K 2.04 | L 1.57 | M 1.6 | P 2.29 | Q 3.06 | S 1.53 | T 1.78 | V 2.29 | Y 2.55

Variants of: B2
Assay: as above
Details: c terminus: a fixed tail appended

Protein stability index, by site and new letter:
V1: A 1.74 | C 1.17 | D 1.44 | E 1.3 | F 2.17 | G 1.7 | H 1.41 | I 1.82 | K 1.55 | L 2.5 | M 2.28 | N 2.22 | P 1.32

— the supplement of paper PMC10567573
